Results published in the supplement of paper PMC9170038.

Test system: MS2 coat protein
Assay: apparent KD of MS2 coat protein; designed switch direction (-1 OFF switch, 1 ON switch): 1; higher = weaker reporter binding
In short: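 Stalled E. coli RNA polymerase transcribed designed RNA switches on Illumina chips, which were then titrated with SNAP-549-labelled MS2 coat protein, doubling from 0.7 or 1.5 nM to 3 µM. Steps lasted from 0.8–1.5 h at the lowest concentration to 10–20 min at the highest. The apparent KD is each design's median over clusters of curve-fitted normalised fluorescence.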

[1] = Eterna round: R95, input ligand: FMN 200 uM
[2] = Eterna round: R95, input ligand: microRNA oligo, concentration not stated
[3] = Eterna round: R95, input ligand: none
[4] = input ligand: microRNA oligo, concentration not stated

Sequence	apparent KD of MS2 coat protein [1]	apparent KD of MS2 coat protein [2]	apparent KD of MS2 coat protein [3]	apparent KD of MS2 coat protein (input ligand: FMN 200 uM)	apparent KD of MS2 coat protein [4]	apparent KD of MS2 coat protein (input ligand: none)
UGGAUCUAGGCUUGCCUGGGUCCAUGUUGACAUGAGGAUCACCCAUGUGUAUUUUAUAAGCUUUUUGUUUGUCAACU [JL A Humble Attempt mod 8] (puzzle: Sensor for hsa-mir-208a)	25.7 nM	12.8 nM	28.4 nM	–	–	–
UGUUGUUACGCAGGAUAUGGUCACAUGAGGAUCACCCAUGUAUUGUCGAUGCUAUGUGGAUUUGAUCAGAAGGGCGGGUUAACA [SameState NG2 #100] (Eterna round: R96, puzzle: Same State NG 2)	–	–	–	63.8 nM	88.9 nM	103 nM
AGUCCAGCGAAAGCUGGACAAAAGCGUGUACAUGAGGAUCACCCAUGUUCAUGUACAAGCUUUUUGCUCGUCUUAAA [JL mod - D95 - 6] (puzzle: Sensor for hsa-mir-208a)	30.7 nM	17.3 nM	96.2 nM	–	–	–
GGAAUAUUUACAGGAUAUCAUUUGUAAAUUCGAUGAGAAGGGUAGAUGUCUUACACGACUUGUUACAUGAGGAUCACCCAUGUU [SameState NG1 #8] (Eterna round: R96, puzzle: Same State NG 1)	–	–	–	–	34 nM	–
UUGCGGGCUUGAGGAUAUUGAGUACAUAUGUUUAACAUGAGGAUCACCCAUGUGGGUUGCGGUAUCGAGAAGGUAACUUCCUGC [salish99_SSNG2_r04_811] (Eterna round: R96, puzzle: Same State NG 2)	–	–	–	100 nM	65.3 nM	91.1 nM
AGGCUCAGACUAGGAUAUGAUCAUGGCGCUUCGGCGCAUACAUGAGGAUCACCCAUGUAAAGUGAUCAGAAGGAGUCUGAGCCA [SSNG2/7-C1] (Eterna round: R96, puzzle: Same State NG 2)	–	–	–	9.82 nM	9.08 nM	13.6 nM
AGGGCCGCGGCACAGGAUAUGCACAGGUUCACAUGAGGAUCACCCAUGUGCUCUAGAUAACUUAAGCAGAAGGGUGUCAUGGUAA [Biarrace] (puzzle: Same State 2)	11.2 nM	12 nM	14.1 nM	–	–	–
UCUUGGUUUUUGCUCGUUUUUUGUGUUGAACAUGAGGAUCACCCAUGUAUUGUACAAUCCAAUUUAAUAAUGGUCCG [JMF 48] (Eterna round: R96, puzzle: Sensor for hsa-mir-208a)	–	–	–	105 nM	70.1 nM	99.2 nM
CGUAGGUAGCUGGAGGAUAUCCGAGUGGUAACAUGAGGAUCACCCAUGUGAUGUGAGGAACAUGAGGAGAAGGCUAGCUGCCUGC [JL-ss2-3.12 JL mod] (puzzle: Same State 2)	23.1 nM	37.5 nM	38.2 nM	–	–	–
UGAAUGGUGAUAGGAUAUACAUGAGGAAUCCUCGUAGAAGGAUCAUGACAUGAGGAUCACCCAUGUAGCGCUCCGUAGAGCGCA [JL SSNG1 1.21] (Eterna round: R96, puzzle: Same State NG 1)	–	–	–	53 nM	19.7 nM	154 nM
CUGAGCGAUCAAGGAUAUCACGUCGUUUAGACGUGAGAAGGUGAUCCAUACAUGAGGAUCACCCAUGUAUAACAUGAAGCUCAG [SSNG1/8-A3] (Eterna round: R96, puzzle: Same State NG 1)	–	–	–	646 nM	57 nM	1540 nM
CGUUCUUACUCGGUACGGUGAGUAGAGGAACAUGAGGAUCACCCAUGUAUGAGCUUUUUGCUCGUGAUUAACAGUAG [JR_SHM208a_Sub014] (puzzle: Sensor for hsa-mir-208a)	58 nM	63.3 nM	105 nM	–	–	–
UAAGUCAUGUAAGGAUAUGCAGCCGAAACGGCUGCAGAAGGUACUAUAAUUACAUGAGGAUCACCCAUGUUAUAAAAUUUAAAU [Mat - Same State NG 1 - JL mod - D78] (Eterna round: R96, puzzle: Same State NG 1)	–	–	–	24.1 nM	43.2 nM	60.7 nM
GUUAGGAAUCUAGCAGACAUGAGGAUCACCCAUGUUAGUGGGAAGGAUAUGGUACAGAAACUGUACCAGAAGGUCUUAUUGUUU [Omei SS(NG) 3 AV13] (Eterna round: R96, puzzle: Same State NG 3)	–	–	–	348 nM	398 nM	690 nM
GGAGGGAGGGCGCAGGAUAUCGAUAAUGACACAUGAGGAUCACCCAUGUUUGGUAUUAGAAGGAACGAGAAGGGUGAGAGGAGGG [red_knee_arm] (puzzle: Same State 2)	36.1 nM	35.1 nM	53.2 nM	–	–	–
GUCGGACCGGAAGGAUAUAACGACUGGUGUUUUCACAUGAGGAUCACCCAUGUAUCUCUACCGUGUUAGAAGGUUCGGAGGAAU [Eternabot solution 49] (Eterna round: R96, puzzle: Same State NG 2)	–	–	–	14.8 nM	15.2 nM	20.4 nM
AGUCCAGCAUGAGCUGGACAAAAGCAUGUACAUGAGGAUCACCCAUGUCAUGUACAAGCUUUUUGCUCGUCUUAAUA [Mat - hsa-mir-208a - Mod of JL - D35] (puzzle: Sensor for hsa-mir-208a)	513 nM	15.9 nM	534 nM	–	–	–
GUUUGAUGGUGAGGAUAUGUACAAAGAUAGGGUAUAGAAGGCAUGCGCCGGGAAACCGCGGUACAUGAGGAUCACCCAUGUGUC [Eternabot solution 36] (Eterna round: R96, puzzle: Same State NG 1)	–	–	–	207 nM	54.9 nM	121 nM
GAGUGGAGGAGAGGAUAUACAAUGAUAAUCACAGUAGAAGGUUCUAACAUGAGGAUCACCCAUGUAGGACUAUUCCUGAGAGUU [Parity 50 - Jieux - Same State NG 1] (Eterna round: R96, puzzle: Same State NG 1)	–	–	–	10.8 nM	9.56 nM	12.8 nM
CGGCUCCGUGGAGGAUAUGGGCCUGCCCGGGAUACCGGGCCUAACACAUGAGGAUCACCCAUGUCCCAGAAGGCCGCUGGAGCC [Cebeladi] (Eterna round: R96, puzzle: Same State NG 2)	–	–	–	12.7 nM	26.2 nM	52.3 nM
ACUAUUUAUGCAGGAUAUGAUUAACAUGAGGAUCACCCAUGUGGUGUUGUGAGUAAGGAGAGUGAUCAGAAGGGCAUUUUUUUU [JMF's solution 75] (Eterna round: R96, puzzle: Same State NG 2)	–	–	–	518 nM	297 nM	359 nM
AGUCCAGCCUGAGCUGGACAAAAGCAUGUACAUGAGGAUCACCCAUGUUCAUGUACAAGCUUUUUGCUCGUCGUAAU [Mat - hsa-mir-208a - Mod of JL - 48] (puzzle: Sensor for hsa-mir-208a)	501 nM	16.7 nM	611 nM	–	–	–
GGUAAGAAUUAAGGAUAUUGAUUACAUAUGUUUAACAUGAGGAUCACCCAUGUGGGUUGCGGUAUCGAGAAGGUAAAAUAAUAG [Mat - same State NG 2 - JL mod - D83] (Eterna round: R96, puzzle: Same State NG 2)	–	–	–	145 nM	170 nM	170 nM
